Reference: patent publication US20040138431A1 (Genentech, published 2004)

Molecular target: trkB with a gD tag expressed on CHO cells
Test: cell-based or functional assay

B1: recombinant human NT-4/5 (rhNT-4/5), correctly folded, intact, purified from E. coli (ligand)
chain: GVSETAPASRRGELAVCDAVSGWVTDRRTAVDLRGREVEVLGEVPAAGGSPLRQYFFETRCKADNAEEGGPGAGGGGCRGVDRRHWVSECKAKQSYVRALTAHAQGRVGWRWIRIDTACVCTLLSRTGRA
EC50, kinase receptor activation (KIRA) assay: 0.0126 µg/mL
